# Measurements published in US11311626B2, “Plasmin-cleavable anti-insoluble fibrin antibody-drug conjugate” (NATIONAL CANCER CENTER JAPAN, priority 2017, dated 2022).
# How the values were obtained:
# [1] = biological target: peptide of the epitope site of 102-10 (Homo sapiens, UniProt P02675); assay: Verification of affinity by SPR (Biacore T200, multi cycle kinetics); type: binding; conditions: for Dissociation rate constant kd: immobilized epitope peptide of 102-10; for Binding rate constant ka: immobilized epitope peptide of 102-10, antibody 48.875-1500 nM; for Kd: immobilized epitope peptide of 102-10, reference for relative affinity
# Procedure: When an antigen is insoluble, although SPR is not suitable for verifying the affinity of the antigen, measurement by SPR was performed as reference for comparing relative affinity levels between antibodies.
# The affinity of an antibody to insoluble fibrin was calculated based on analysis by surface plasmon resonance (SPR) using Biacore T200 (GE Healthcare) to evaluate the intermolecular interaction of the antibody. […] The immobilization was performed using an amine coupling kit (BR-1000-50, GE Healthcare) and setting the […] to 90 RU. Subsequently, an antigen-antibody reaction was performed using an antibody diluted to […], 93.75, 187.5, 375, 750, and 1500 nM with 1× HBS-N buffer by a multi cycle kinetics method under conditions shown in Table 1. After the measurement, analysis using BIA evaluation (GE Healthcare) was performed to determine the KD value, kd value, and ka value.
# [2] = system: triple mutant mouse-derived pancreatic cancer cell line; conditions: Alexa 647-labeled antibody, 300 μg per mouse, tail vein, imaging 1 h to day 7, FIG. 2
# Procedure: Accordingly, in vivo imaging was performed using the cell line. […] The pancreatic cancer cell line was cultured in 500 mL of a RPMI 1640 (FUJIFILM Wako Pure Chemical Corporation) medium supplemented with 100 mL of inactivated fetal bovine serum (FBS, Gibco) and 10 mL of 100 units/mL Penicillin, 100 μg/mL Streptomycin, and 250 ng/mL Amphotericin B (FUJIFILM Wako Pure Chemical Corporation). The culture supernatant was then removed. The cells were washed with PBS (Invitrogen), and 2 mL of Trypsin-EDTA [0.25% (w/v) trypsin-1.0 mmol/L ethylenediaminetetraacetic acid-4Na Solution with Phenol Red, FUJIFILM Wako Pure Chemical Corporation] was added thereto. The cells were detached by pipetting and placed in a 15-mL tube (Corning Incorporated), followed by centrifugation with a centrifuge (Universal centrifuge 5800, KUBOTA Corporation Co., Ltd.) at 270×g for 3 minutes at 4° C. The supernatant was removed, and the precipitate was resuspended in 10 mL of PBS, followed by centrifugation at 270×g for 3 minutes at 4° C. After repeating this procedure three times, the concentration was adjusted to 2×10^6 cells/50 μL with PBS, and the cell solution was subcutaneously injected to 5-week old BALB/c Slc nu/nu mice (Japan SLC, Inc.) at 50 μL per mouse from the left foot base. […] The control used was InVivoMAb Mouse IgG1 Isotype control (Bio X Cell). […]
Molecule,Dissociation rate constant kd [1] [s⁻¹],Binding rate constant ka [1] [M⁻¹ s⁻¹],Kd [1] [nM],Accumulation of antibody to cancer [2]
"1101: mAb (mouse IgG1) from clone 1101, mouse immunized with peptide of SEQ ID NO: 27; insoluble fibrin-specific antibody; VH SEQ ID NO: 12, VL SEQ ID NO: 16 (antibody, V domains shown) VH: MECNWILPFILSVISGVYSEVQLQQSGTVLARPGASVKMSCKASGFSFTSYWMHWVKQRPGQGLEWIGAIYPGNSDTRNNQKFKGKAKLTAVTSANTAYMELSSLTNEDSAVYYCTRKAHYGNYGFAYWGQGTLVTVSAA VL: MSGHSRNMKFPSQLLLFLLFRITGIICDIQMTQSSSYLSVSLGGRVTITCKASDHINNWLAWYQQKPGNAPRLLISGATSLETGVPSRFSGSGSGKDYTLSITSLQTEDVATYYCQQYWSTPLTFGAGTKLELKRADAAP",0.00325,93700,66.8,high
"99-5: mAb (mouse IgG1) from clone 99-5, mouse immunized with peptide of SEQ ID NO: 26; insoluble fibrin-specific antibody; VH SEQ ID NO: 4, VL SEQ ID NO: 8 (antibody, V domains shown) VH: MDWLWNLLFLMAAAQSIQAQIQLVQSGPELKKPGETVKISCKASGYTFTNYGMNWVKQAPGKGLKWMGWINTKIGEPTYAEEFKGRFAFSLETSASTAYLQINNLKNEDTATYFCARLLDYWGQGTTLTVSSAKTTPPSV VL: METDTLLLWVLLLWVPGSTGDIVLTQSPASLAVSLGQRATISCRASESVDSYGNSFMHWYQQKPGQPPKLLIYRASNLESGIPARFSGSGSRTDFTLTINPVEADDVATYYCQQSNEDPRTFGGGTKLEIKRADAAPTVS",0.000585,18000,32.6,high
